Drawing on EP1644414B1, this text covers OD492nm for two molecules.

In the experiment the target is UV-inactivated SARS-CoV preparation (Frankfurt 1 strain) (SARS-CoV strain Frankfurt 1). The experiment can be described thus: phage ELISA, plate 2 (no phage 0.211). For orientation: An ELISA detects its analyte on a solid surface through an enzyme-linked reagent.

B1: SC03-026 (scFv)
scFv: AMAQVQLVQSGGGLVQPGGSLRLSCAASGFTFSSYAMHWVRQAPGKGLEYVSGISSNGGSTYYANSVKGRFTISRDNSKNTLYLQMGSLRAEDMAVYYCARTTNRAFDIWGQGTMVTVSSGTGGSGGTGSGTGGSTDIQMTQSPDSLAVSLGERATINCKSSQSILYSSNSKNYLGWYQQKPGQPPKLLIYWASTRESGVPDRFSGSGSGTDFTLTISSLQAEDVAVYYCQQYYSTPYSFGQGTKVEIKRAA
Consider B1, for which the OD492nm turned out to be 1.07 OD492nm.

B2: SC03-025 (scFv)
scFv: AMAEVQLVESGGGLVQPGGSLRLSCAASGFTFSSYAMHWVRQAPGKGLEYVSGISSNGGSTYYANSVKGRFTISRDNSKNTLYLQMGSLRAEDMAVYYCARTTNRAFDIWGQGTMVTVSSGTGGSGGTGSGTGGSTDIQLTQSPDSLAVSLGERATINCKSSQSVLYSSNNKNYLAWYQQKPGQPPKLLIYWASIRESGVPDRFSGSGSGTDFTLTISSLQAEDVAVYYCQQYYNIPYAFGQGTKLEIKRAA
The molecule B2 showed an OD492nm of 1.64 OD492nm.
